Results: publication doi:10.1101/154351 (bioRxiv, 2017)

Biological target: TRC35 (residues 23 to 305) (human, UniProt Q7L5D6 23-305)
Experiment: crystal structure

Chain of TRC35 (residues 23 to 305) (Q7L5D6 23-305): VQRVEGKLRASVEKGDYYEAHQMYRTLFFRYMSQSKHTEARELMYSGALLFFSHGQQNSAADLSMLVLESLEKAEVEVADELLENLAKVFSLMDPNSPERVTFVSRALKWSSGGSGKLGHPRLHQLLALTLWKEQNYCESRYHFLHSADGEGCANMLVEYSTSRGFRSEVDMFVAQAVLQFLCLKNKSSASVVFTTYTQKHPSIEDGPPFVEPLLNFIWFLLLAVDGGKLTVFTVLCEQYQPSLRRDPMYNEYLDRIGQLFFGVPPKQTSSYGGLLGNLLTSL

binding result: binds
B1: Bag6 minimal TRC35-binding domain containing the NLS (residues 1000-1054) (domain or fragment)
chain: ETEPWAAAVPPEWVPIIQQDIQSQRKVKPQPPLSDAYLSGMPAKRRKTMQGEGPQ
